These results are taken from patent publication CN115368461A (JIANGSU HENGRUI MEDICINE CO; SHANGHAI HENGRUI …, dated 2022).

For experiment [1], the target named is T1, TROP2 on FaDu cells (high huTROP2 expression) and SK-OV-3 cells (low TROP2 expression) (human, UniProt P09758 27-323).
T1 sequence (looked up): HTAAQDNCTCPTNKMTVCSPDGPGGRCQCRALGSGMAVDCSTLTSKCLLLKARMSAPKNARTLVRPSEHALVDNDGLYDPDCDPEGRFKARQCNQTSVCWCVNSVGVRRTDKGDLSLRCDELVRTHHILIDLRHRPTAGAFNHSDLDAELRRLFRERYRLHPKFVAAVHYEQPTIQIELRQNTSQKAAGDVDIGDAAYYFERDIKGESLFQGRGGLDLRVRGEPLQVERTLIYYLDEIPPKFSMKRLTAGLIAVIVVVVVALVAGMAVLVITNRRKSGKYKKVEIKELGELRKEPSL
The experiment is described as follows: cell-based or functional assay.

For experiment [2], the target named is T2, 人TROP2-his (huTROP2-His), ACRO TR2-H5223 (human, UniProt P09758 27-274).
T2 construct: Bought His-tagged human TROP2 protein (ACRO)
T2 sequence: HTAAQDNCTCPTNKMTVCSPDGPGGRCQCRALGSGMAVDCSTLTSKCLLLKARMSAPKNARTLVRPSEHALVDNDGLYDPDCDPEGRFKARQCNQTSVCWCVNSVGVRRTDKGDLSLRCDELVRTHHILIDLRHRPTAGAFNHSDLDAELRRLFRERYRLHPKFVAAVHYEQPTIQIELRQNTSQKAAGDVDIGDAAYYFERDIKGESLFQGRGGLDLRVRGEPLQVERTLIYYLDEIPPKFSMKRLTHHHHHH
The experiment is described as follows: Biacore T200 SPR; antibody captured on Protein A chip, huTROP2-his as analyte, 1:1 model. In general terms: Surface plasmon resonance follows binding to a sensor surface in real time, without labels.

The target of experiment [3] is T3, CHO细胞表面表达的人TROP2 (huTROP-2 CHO-K1 cells) (human, UniProt P09758 27-323).
T3 construct: Untagged human TROP2 stably expressed on CHO-K1 cells; The cells were fixed with paraformaldehyde in the cell ELISA; also called CHO-K1/hTROP2
T3 sequence: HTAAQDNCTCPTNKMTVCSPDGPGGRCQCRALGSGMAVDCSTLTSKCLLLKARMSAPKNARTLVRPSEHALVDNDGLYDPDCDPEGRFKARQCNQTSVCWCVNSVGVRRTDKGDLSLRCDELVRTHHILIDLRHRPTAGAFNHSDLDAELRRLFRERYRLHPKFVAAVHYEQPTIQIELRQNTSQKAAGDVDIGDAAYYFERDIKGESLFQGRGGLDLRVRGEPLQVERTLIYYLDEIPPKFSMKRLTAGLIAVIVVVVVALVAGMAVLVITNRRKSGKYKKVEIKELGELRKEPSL
The experiment is described as follows: cell ELISA on fixed huTROP-2 CHO-K1 cells. On the technique in general: ELISA stands for enzyme-linked immunosorbent assay.

Experiment [4] addresses T2, 人TROP2-his (huTROP2-His), ACRO TR2-H5223. The experiment is described as follows: ForteBio Octet BLI; antibody on Protein A sensor, 100nM antigen.

B1: hu29-12 (antibody, human IgG1, kappa, V domains shown)
VH: EVKLVESGGGLVQPGGSLRLSCAASGFSFSDYYMYWVRQAPGKGLEWVANIDNVGDTTYYPDTVKGRFTISRDNAKNSLYLQMNSLRAEDTAVYYCARHDPLTGPPFFAMDYWGQGTTVTVSS
VL: DIQMTQSPSSLSASVGDRVTITCKASQGINQYIAWYQQKPGKGPKLLIHYTSTLQPGVPSRFSGSGSGRDYTFTISSLQPEDIATYYCLQYDNLWTFGGGTKVEIKR
notes: also called mAb29 VH4 + VL3
In general, Kd refers to the equilibrium constant for the complex coming apart. Lower therefore signals higher affinity. For the molecule B1, in experiment [1], the “IC50(nM), DT3C内吞杀伤实验 on FaDu cells” value was 0.0094 nM and the “Imax(%), DT3C内吞杀伤实验 on FaDu cells” value was found to be 100%. Binding in experiment [2] was characterised by a dissociation constant (Kd) of 0.202 nM.

B2: hRS7 (antibody, human IgG1, kappa, V domains shown)
VH: QVQLQQSGSELKKPGASVKVSCKASGYTFTNYGMNWVKQAPGQGLKWMGWINTYTGEPTYTDDFKGRFAFSLDTSVSTAYLQISSLKADDTAVYFCARGGFGSSYWYFDVWGQGSLVTVSS
VL: DIQLTQSPSSLSASVGDRVSITCKASQDVSIAVAWYQQKPGKAPKLLIYSASYRYTGVPDRFSGSGSGTDFTLTISSLQPEDFAVYYCQQHYITPLTFGAGTKVEIKR
B2: in experiment [1], the “IC50(nM), DT3C内吞杀伤实验 on FaDu cells” value was determined as 0.069 nM and the “Imax(%), DT3C内吞杀伤实验 on FaDu cells” value was determined as 97.7%.

B3: TINA (antibody, human IgG1, kappa, V domains shown)
VH: QVQLVQSGAEVKKPGASVKVSCKASGYTFTTAGMQWVRQAPGQGLEWMGWINTHSGVPKYAEDFKGRVTISADTSTSTAYLQLSSLKSEDTAVYYCARSGFGSSYWYFDVWGQGTLVTVSS
VL: DIQMTQSPSSLSASVGDRVTITCKASQDVSTAVAWYQQKPGKAPKLLIYSASYRYTGVPSRFSGSGSGTDFTLTISSLQPEDFAVYYCQQHYITPLTFGQGTKLEIKR
notes: Control antibody built according to WO2015098099A1; also called TINA抗体; 阳性对照抗体TINA
B3: binding in experiment [2] was characterised by a dissociation constant (Kd) of 17 nM.

B4: hu53-02 (antibody, human IgG1, kappa, V domains shown)
VH: EVQLVQSGAEVKKPGASVKVSCKASGYTFTSYWITWVRQAPGQGLEWMGNIHPGSSTTNYNEKFKSRVTMTRDTSTSTVYMELSSLRSEDTAVYYCAREVGDYWGQGTTVTVSS
VL: EIVLTQSPATLSLSPGERATLSCRASQIIGTSIHWYQQKPGQAPRLLIKYVSESISGIPARFSGSGSGTDFTLTISSLEPEDFAVYYCQQSHSWPFTFGGGTKVEIKR
notes: also called mAb53 VH1 + VL2
With B4, in experiment [1], the “IC50(nM), DT3C内吞杀伤实验 on FaDu cells” value is 0.0643 nM and the “Imax(%), DT3C内吞杀伤实验 on FaDu cells” value was 97.5%. In experiment [2], this molecule had a Kd of 0.691 nM.

B5: mAb29 (antibody, V domains shown)
VH: EVKLVESGGDLVQPGGSLKLSCAASGFSFSDYYMYWVRQTPEKRLEWVANIDNGGDTTYYPDTVKGRFTISRDNAKNTLYLQMSRLKSEDTAMYYCARHDPLTGPPFFAMDYWGQGTSVTVSS
VL: DIQMTQSPSSLSASLGGKVTISCKASQGINQYIAWYQLKPGKGPRLLIHYTSTLQPGVPSRFSGSGSGRDYSFSISNLEPEDIASYYCLQYDNLWTFGGGTKLEIK
notes: Murine hybridoma monoclonal antibody; the murine constant regions are not; In the cell ELISA it was detected with goat anti-mouse IgG-HRP; also called 鼠源mAb29; 鼠源抗体mAb29
As for B5, the binding result in experiment [3] and in experiment [4] was “binds” in each case.

B6: mAb53 (antibody, V domains shown)
VH: QVQLQQPGAELVKPGASVKMSCKASGYTFTSYWITWVKQRPGQGLEWIGNIHPGSSTTNYNEKFKSKATLTVHTSSSTVYMQLTSLTSEDSAVYYCAREVGDYWGQGTSVTVSS
VL: DILLTQSPAILSVSPGERASFSCRASQIIGTSIHWYQQRTNGSPRLLIKYVSESISGIPSRFSGSGSGTDFTLSINSVESEDIADYYCQQSHSWPFTFGGGTKL
notes: Murine hybridoma monoclonal antibody; the murine constant regions are not; also called 鼠源mAb53; 鼠源抗体mAb53
Take B6: the binding result in experiment [3] and in experiment [4] was “binds” in each case.
